In patent US20070065878A1:

Assays:
[1] = biological target: T1, A06 (TEV substrate clone, 5X library)
T1 chain: FEDGL

[2] = biological target: T2, D02 (TEV substrate clone, 5X library)
T2 chain: DSELY

[3] = biological target: T3, H11 (TEV substrate clone, 5X library)
T3 chain: AEWGR

[4] = biological target: T4, C05 (TEV substrate clone, 5X library)
T4 chain: REVGY

[5] = biological target: T5, F07 (TEV substrate clone, 5X library)
T5 chain: EENLG

[6] = biological target: E03 (TEV substrate clone, 5X library)
[7] = biological target: T6, E01 (TEV substrate clone, 5X library)
T6 chain: EEYLW

[8] = biological target: T7, H07 (TEV substrate clone, 5X library)
T7 chain: EEAVL

[9] = biological target: T8, B02 (TEV substrate clone, 5X library)
T8 chain: EEELY

[10] = biological target: T9, F03 (TEV substrate clone, 5X library)
T9 chain: LESLV

[11] = biological target: T10, D01 (TEV substrate clone, 5X library; as in Table 6)
T10 chain: GEVLW

[12] = biological target: T11, B6 (TEVopt library clone)
T11 chain: EVYVQG

[13] = biological target: T12, D4 (TEVopt library clone)
T12 chain: LLYIQG

[14] = biological target: T13, G08 (TEV substrate clone, 5X library)
T13 chain: MEWLW

[15] = biological target: T14, A1 (TEVopt library clone)
T14 chain: FLYLQG

[16] = biological target: T15, C10 (TEV substrate clone, 5X library)
T15 chain: PEVIY

[17] = biological target: T16, D04 (TEV substrate clone, 5X library)
T16 chain: GEALF

[18] = biological target: T17, A2 (TEVopt library clone)
T17 chain: DVYVQG

[19] = biological target: T18, H08 (TEV substrate clone, 5X library)
T18 chain: WEPLW

[20] = biological target: T19, D07 (TEV substrate clone, 5X library)
T19 chain: REVLY

[21] = biological target: T20, H06 (TEV substrate clone, 5X library)
T20 chain: EEELW

[22] = biological target: T21, E4 (TEVopt library clone)
T21 chain: SLYVQG

[23] = biological target: T22, E11 (TEV substrate clone, 5X library)
T22 chain: WESLY

[24] = biological target: T23, F11 (TEV substrate clone, 5X library)
T23 chain: GEPLW

[25] = biological target: T24, D1 (TEVopt library clone)
T24 chain: WLYLQG

[26] = biological target: T25, C5 (TEVopt library clone)
T25 chain: ELYAQG

[27] = biological target: T26, D5 (TEVopt library clone)
T26 chain: SLYWQG

[28] = biological target: T27, E05 (TEV substrate clone, 5X library)
T27 chain: RDDGY
Throughout, for % Conversion: test concentration or dose not given here.
Throughout, for Conversion (group heading of the table): test concentration or dose not given here.

B1: tobacco etch virus protease (protein)
chain: GESLFKGPRDYNPISSTICHLTNESDGHTTSLYGIGFGPFIITNKHLFRRNNGTLLVQSLHGVFKVKNTTTLQQHLIDGRDMIIIRMPKDFPPFPQKLKFREPQREERICLVTTNFQTKSMSSMVSDTSCTFPSSDGIFWKHWIQTKDGQCGSPLVSTRDGFIVGIHSASNFTNTNNYFTSVPKNFMELLTNQEAQQWVSGWRLNADSVLWGGHKVFMSKPEEPFQPVKEATQLMNELVYSQ
Q: How did the “Conversion (group heading of the table)” value [1] turn out when B1 was run?
A: 30%-50% conversion

Q: What about the “Conversion (group heading of the table)” value [2] of the same protein?
A: 60%-90% Conversion

Q: And the “Conversion (group heading of the table)” value [3]?
A: 30%-50% conversion

Q: What about the “Conversion (group heading of the table)” value [4] of the same protein?
A: 30%-50% conversion

Q: And the “Conversion (group heading of the table)” value [5]?
A: 50%-60% Conversion

Q: What about the “Conversion (group heading of the table)” value [6] of the same protein?
A: 60%-90% Conversion

Q: What about the “Conversion (group heading of the table)” value [7] of the same protein?
A: 50%-60% Conversion

Q: And the % Conversion (fraction (head says % Conversion)) [8]?
A: 0.71

Q: And the “Conversion (group heading of the table)” value [8]?
A: 60%-90% Conversion

Q: And the Fl (fluorescence without TEV) [8]?
A: 2990

Q: And the Fl after TEV [8]?
A: 1040

Q: And the % Conversion (fraction (head says % Conversion)) [9]?
A: 0.72

Q: What about the “Conversion (group heading of the table)” value [9] of the same protein?
A: 60%-90% Conversion

Q: What about the Fl (fluorescence without TEV) [9] of the same protein?
A: 3270

Q: What about the Fl after TEV [9] of the same protein?
A: 1080

Q: What about the “Conversion (group heading of the table)” value [10] of the same protein?
A: 60%-90% Conversion

Q: And the % Conversion (fraction (head says % Conversion)) [11]?
A: 0.87

Q: What about the Fl (fluorescence without TEV) [11] of the same protein?
A: 3840

Q: What about the Fl after TEV [11] of the same protein?
A: 725

Q: And the % Conversion (fraction (head says % Conversion)) [12]?
A: 0.61

Q: What about the % Conversion (fraction (head says % Conversion)) [13] of the same protein?
A: 0.517

Q: And the “Conversion (group heading of the table)” value [14]?
A: 60%-90% Conversion

Q: What about the % Conversion (fraction (head says % Conversion)) [15] of the same protein?
A: 0.918

Q: What about the % Conversion (fraction (head says % Conversion)) [16] of the same protein?
A: 0.81

Q: And the “Conversion (group heading of the table)” value [16]?
A: 60%-90% Conversion

Q: What about the Fl (fluorescence without TEV) [16] of the same protein?
A: 6110

Q: And the Fl after TEV [16]?
A: 1380

Q: What about the “Conversion (group heading of the table)” value [17] of the same protein?
A: 50%-60% Conversion

Q: What about the % Conversion (fraction (head says % Conversion)) [18] of the same protein?
A: 0.526

Q: What about the % Conversion (fraction (head says % Conversion)) [19] of the same protein?
A: 0.73

Q: What about the “Conversion (group heading of the table)” value [19] of the same protein?
A: 60%-90% Conversion

Q: What about the Fl (fluorescence without TEV) [19] of the same protein?
A: 3970

Q: And the Fl after TEV [19]?
A: 1250

Q: And the “Conversion (group heading of the table)” value [20]?
A: 60%-90% Conversion

Q: And the “Conversion (group heading of the table)” value [21]?
A: 60%-90% Conversion

Q: And the % Conversion (fraction (head says % Conversion)) [22]?
A: 0.863

Q: What about the % Conversion (fraction (head says % Conversion)) [23] of the same protein?
A: 0.77

Q: What about the “Conversion (group heading of the table)” value [23] of the same protein?
A: 60%-90% Conversion

Q: And the Fl (fluorescence without TEV) [23]?
A: 5050

Q: And the Fl after TEV [23]?
A: 1360

Q: And the “Conversion (group heading of the table)” value [24]?
A: 50%-60% Conversion

Q: What about the % Conversion (fraction (head says % Conversion)) [25] of the same protein?
A: 0.68

Q: And the % Conversion (fraction (head says % Conversion)) [26]?
A: 0.588

Q: What about the % Conversion (fraction (head says % Conversion)) [27] of the same protein?
A: 0.717

Q: What about the “Conversion (group heading of the table)” value [28] of the same protein?
A: 30%-50% conversion
